Test results reported in paper PMC7985710.

Legend:
[1] = target: Human HDL, double-radiolabeled; assay: [125I]-HDL cell association on transfected COS-7 cells; details: COS-7 cells transiently expressing WT or mutant SR-BI; n = 3 independent transfections; empty vector bar est. 30 % of WT; parent: est. 100; read off a plot
[2] = target: R174C-SR-BI (human variant of scavenger receptor class B type I) (human) (UniProt Q8WTV0); assay: radioligand binding; [^125I]-HDL binding: transfected COS-7 cells incubated with 10 μg/ml double-radiolabeled human HDL for 1.5 h at 4°C
[3] = target: WT scavenger receptor class B type I (human SR-BI) (human) (UniProt Q8WTV0); assay: as above

| Substance | percent of parent [1] | HDL binding, percent of WT-SR-BI [2] [%] | HDL binding (raw value) (ng/mg protein) [3] |
| --- | --- | --- | --- |
| WT scavenger receptor class B type I (human SR-BI) (from UniProt Q8WTV0-2) D185R | 82 % of WT |  |  |
| Human HDL, double-radiolabeled (complex) |  | 31.3 | 22.7 |
| WT scavenger receptor class B type I (human SR-BI) (from UniProt Q8WTV0-2) R174D; D185R | 44 % of WT |  |  |
| WT scavenger receptor class B type I (human SR-BI) (from UniProt Q8WTV0-2) R174K | 72 % of WT |  |  |
